Among the data in US20110200585A1 are Kd values, retold here.

The target in one test is Cyno FcRn (cyno) (UniProt Q8SPV9). Description: SPR, ProteOn XPR36; antibody amine-coupled to GLM chip, FcRn 8-2048 nM as analyte, equilibrium fit, pH 6.0.
A further test addresses Human FcRn (human) (UniProt P55899). The test is described as above.
Another test has as its target rat FcRn (rat) (UniProt P13599). Described as above.
The target of another test is Mouse FcRn (mouse) (UniProt Q61559). Described as above.
Another test deals with Fcγ (Val) (UniProt P08637). In words: SPR, ProteOn XPR36; antibody amine-coupled to GLM chip, receptor 8-2048 nM as analyte, equilibrium fit, pH 7.4.
A further test has as its target Fcγ2a (Arg) (UniProt P12318). The description is as above.
The target in the next test is Fcγ3a (Phe) (UniProt P08637). The description is as above.
A further test deals with Fcγ1 (UniProt P12314). Described as above.
Fcγ1, sequence (P12314 16-288): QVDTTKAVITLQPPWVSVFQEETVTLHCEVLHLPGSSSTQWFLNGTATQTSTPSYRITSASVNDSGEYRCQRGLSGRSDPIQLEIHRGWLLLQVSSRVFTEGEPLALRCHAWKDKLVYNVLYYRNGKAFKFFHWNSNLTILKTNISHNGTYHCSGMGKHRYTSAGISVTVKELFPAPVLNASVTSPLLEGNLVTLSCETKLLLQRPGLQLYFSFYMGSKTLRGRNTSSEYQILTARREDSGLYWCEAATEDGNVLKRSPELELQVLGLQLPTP

Mouse FcRn (mouse), sequence (Q61559 22-297 limits assumed, form in doubt, chain 1 of 2): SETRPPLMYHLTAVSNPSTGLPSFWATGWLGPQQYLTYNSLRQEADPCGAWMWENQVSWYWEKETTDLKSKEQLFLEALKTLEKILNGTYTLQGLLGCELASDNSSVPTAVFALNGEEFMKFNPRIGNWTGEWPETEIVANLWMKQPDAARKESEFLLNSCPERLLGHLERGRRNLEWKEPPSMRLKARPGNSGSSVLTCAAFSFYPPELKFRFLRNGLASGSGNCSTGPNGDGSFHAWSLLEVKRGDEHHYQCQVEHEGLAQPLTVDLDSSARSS
Mouse FcRn (mouse), sequence (chain, as listed by the source limits assumed, form in doubt, chain 2 of 2): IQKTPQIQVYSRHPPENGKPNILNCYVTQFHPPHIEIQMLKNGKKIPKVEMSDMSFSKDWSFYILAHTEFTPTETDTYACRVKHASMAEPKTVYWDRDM
Human FcRn (human), sequence (P55899 24-297 limits assumed, chain 1 of 2): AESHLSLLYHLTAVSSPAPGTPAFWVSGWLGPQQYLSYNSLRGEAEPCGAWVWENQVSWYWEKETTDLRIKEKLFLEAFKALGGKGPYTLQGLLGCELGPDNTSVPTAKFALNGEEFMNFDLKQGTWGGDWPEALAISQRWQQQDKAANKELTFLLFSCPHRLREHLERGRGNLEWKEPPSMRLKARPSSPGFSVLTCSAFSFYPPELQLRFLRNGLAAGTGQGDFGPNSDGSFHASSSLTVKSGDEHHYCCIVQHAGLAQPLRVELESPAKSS
Human FcRn (human), sequence (chain, as listed by the source limits assumed, chain 2 of 2): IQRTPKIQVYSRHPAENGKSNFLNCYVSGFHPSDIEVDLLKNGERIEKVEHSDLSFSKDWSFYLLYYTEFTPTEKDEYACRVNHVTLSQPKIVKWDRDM
rat FcRn (rat), sequence (P13599 23-298 limits assumed, form in doubt, chain 1 of 2): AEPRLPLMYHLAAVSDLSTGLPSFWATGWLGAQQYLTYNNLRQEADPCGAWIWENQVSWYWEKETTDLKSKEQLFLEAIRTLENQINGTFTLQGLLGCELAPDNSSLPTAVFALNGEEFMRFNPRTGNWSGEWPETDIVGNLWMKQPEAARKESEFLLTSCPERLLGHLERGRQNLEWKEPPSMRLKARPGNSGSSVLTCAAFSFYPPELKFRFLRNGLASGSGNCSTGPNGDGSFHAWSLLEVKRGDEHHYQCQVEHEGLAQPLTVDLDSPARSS
rat FcRn (rat), sequence (chain, as listed by the source limits assumed, form in doubt, chain 2 of 2): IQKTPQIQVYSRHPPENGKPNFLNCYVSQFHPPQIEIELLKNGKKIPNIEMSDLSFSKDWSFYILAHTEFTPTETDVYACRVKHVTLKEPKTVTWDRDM
Fcγ3a (Phe), sequence (P08637 17-208): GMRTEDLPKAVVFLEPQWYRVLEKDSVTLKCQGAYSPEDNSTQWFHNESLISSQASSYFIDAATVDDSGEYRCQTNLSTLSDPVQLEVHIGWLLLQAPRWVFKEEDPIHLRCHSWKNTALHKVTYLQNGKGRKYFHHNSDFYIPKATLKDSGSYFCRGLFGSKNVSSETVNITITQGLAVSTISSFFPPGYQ
Fcγ (Val), sequence (P08637 17-208 F176V): as the sequence (P08637 17-208) above, with F160V counted along it
Fcγ2a (Arg), sequence (P12318 34-217 H167R): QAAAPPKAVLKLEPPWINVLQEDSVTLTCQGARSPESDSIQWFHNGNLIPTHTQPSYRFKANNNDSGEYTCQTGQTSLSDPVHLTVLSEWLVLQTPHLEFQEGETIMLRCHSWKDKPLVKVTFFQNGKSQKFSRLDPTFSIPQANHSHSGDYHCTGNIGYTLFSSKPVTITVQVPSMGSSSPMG

The Kd is the constant that tells how readily two partners part at equilibrium. Regarding Control Ab (Fc WT) (antibody), the Kd with Cyno FcRn (cyno) was found to be 156 nM; with Human FcRn (human), 95 nM; with rat FcRn (rat), 112 nM; in the test with Mouse FcRn (mouse), 160 nM; with Fcγ (Val), 442 nM; with Fcγ2a (Arg), 1290 nM. The results for the Kd in the test with Fcγ3a (Phe) and in the test with Fcγ1 were 1840 nM and 14.9 nM, respectively.

On to Control Ab (Fc disabled) (antibody), for which the Kd with Cyno FcRn (cyno) turned out to be 195 nM; with Human FcRn (human), 154 nM; in the test with rat FcRn (rat) it was 118 nM; with Mouse FcRn (mouse), 171 nM.
